Measurements reported in patent US20230303695A1 (SHANGHAI XBH BIOTECHNOLOGY, published 2023).
Values belong to the binder of their own block, whether it stands above or below them.

What was measured:
[1] = biological target: T1, full-length IGSF8 (recombinant antigen of the SPR screen; IGSF8 target antigen of the phage panning) (human, UniProt Q969P0 28-579, limits assumed); test: SPR, Biacore T100
T1 sequence (looked up): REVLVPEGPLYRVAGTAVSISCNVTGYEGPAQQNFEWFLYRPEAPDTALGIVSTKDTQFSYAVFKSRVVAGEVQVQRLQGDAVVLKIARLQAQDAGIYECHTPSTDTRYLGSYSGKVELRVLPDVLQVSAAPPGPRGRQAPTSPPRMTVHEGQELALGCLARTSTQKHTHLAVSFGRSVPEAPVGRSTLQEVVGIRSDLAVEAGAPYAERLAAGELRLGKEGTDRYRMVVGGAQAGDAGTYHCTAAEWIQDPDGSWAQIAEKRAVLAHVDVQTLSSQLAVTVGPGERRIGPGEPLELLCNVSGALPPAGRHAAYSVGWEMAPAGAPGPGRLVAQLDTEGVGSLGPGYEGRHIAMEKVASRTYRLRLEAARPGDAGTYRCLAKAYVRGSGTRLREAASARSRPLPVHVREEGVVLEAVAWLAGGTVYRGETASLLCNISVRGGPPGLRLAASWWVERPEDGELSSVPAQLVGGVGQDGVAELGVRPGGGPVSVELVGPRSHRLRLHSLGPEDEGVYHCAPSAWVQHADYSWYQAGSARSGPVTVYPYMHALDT

[2] = biological target: T2, IGSF8 protein without D1 domain (human, UniProt Q969P0 150-579, limits assumed); test: FACS, single antibody dose, IGSF8-D24 (D2-D4 with TM, no D1) expressed on CT26 cells
T2 construct: domain: D2-4; also called D24; D2-4
T2 sequence (looked up): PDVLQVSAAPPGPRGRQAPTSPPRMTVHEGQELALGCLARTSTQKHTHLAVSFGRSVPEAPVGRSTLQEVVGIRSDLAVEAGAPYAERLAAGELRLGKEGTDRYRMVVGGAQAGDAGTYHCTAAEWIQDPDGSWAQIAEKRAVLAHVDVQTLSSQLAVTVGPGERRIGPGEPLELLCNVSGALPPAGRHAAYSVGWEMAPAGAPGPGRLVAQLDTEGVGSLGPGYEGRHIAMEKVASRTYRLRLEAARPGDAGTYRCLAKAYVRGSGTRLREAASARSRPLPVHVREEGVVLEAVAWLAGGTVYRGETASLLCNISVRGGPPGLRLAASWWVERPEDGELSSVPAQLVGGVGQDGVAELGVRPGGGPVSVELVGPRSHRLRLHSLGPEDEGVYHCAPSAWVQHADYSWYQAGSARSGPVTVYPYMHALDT

[3] = biological target: T3, human IGSF8 expressed on the cell surface (human, UniProt Q969P0 28-613); test: FACS on CT26 cells with forced surface expression of human IGSF8
T3 construct: whole, on cells; also called human IGSF8 on CT26 cells; IGSF8 on MC38 cells
T3 sequence (looked up): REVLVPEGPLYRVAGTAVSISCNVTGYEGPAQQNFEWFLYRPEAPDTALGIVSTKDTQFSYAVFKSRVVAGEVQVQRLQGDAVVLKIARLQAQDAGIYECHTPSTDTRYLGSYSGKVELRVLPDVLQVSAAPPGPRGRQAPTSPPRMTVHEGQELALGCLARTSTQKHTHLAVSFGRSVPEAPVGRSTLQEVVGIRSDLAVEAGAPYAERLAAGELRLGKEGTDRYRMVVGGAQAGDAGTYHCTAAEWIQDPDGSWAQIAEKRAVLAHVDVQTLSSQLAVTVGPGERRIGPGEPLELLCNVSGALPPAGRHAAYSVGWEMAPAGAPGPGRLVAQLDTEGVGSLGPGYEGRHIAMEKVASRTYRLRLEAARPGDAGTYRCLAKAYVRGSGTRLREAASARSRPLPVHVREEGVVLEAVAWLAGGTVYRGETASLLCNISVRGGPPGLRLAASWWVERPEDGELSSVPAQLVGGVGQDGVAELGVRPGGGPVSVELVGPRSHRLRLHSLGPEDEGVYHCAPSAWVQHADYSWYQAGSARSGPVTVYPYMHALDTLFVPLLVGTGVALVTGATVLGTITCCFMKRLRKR
Method: For antibody binding assays based on cell-expressed antigens, 100,000 cells overexpressing the antigen (either the full-length IGSF8 or the D1 domain thereof) were washed with PBS buffer containing 2% FBS, and then incubated with 100 μL of antibodies or IgG of different concentrations for 30 minutes on ice. Cells were then washed twice with wash buffer, and incubated with 100 μL of 1:100 anti-human Fc-PE antibody for 15 minutes on ice. Cells were washed twice with wash buffer and analyzed on a FACS analyzer (CytoFlex, Beckman).

[4] = biological target: T4, D1 domain of IGSF8 (recombinant protein) (human, UniProt Q969P0 28-149, limits assumed); test: SPR, Biacore T100
T4 construct: domain: D1 (Ig V-set domain); also called Ig V-set domain of IGSF8
T4 sequence (looked up): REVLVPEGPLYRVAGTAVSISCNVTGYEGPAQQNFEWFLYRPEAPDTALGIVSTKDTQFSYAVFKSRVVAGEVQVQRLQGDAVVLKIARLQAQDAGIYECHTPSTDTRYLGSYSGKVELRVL

[5] = biological target: T5, recombinant human IGSF8 extracellular domain tagged by a human Fc region (IGSF8-hFc) (human, UniProt Q969P0 28-579, biotin label in Examples 17, 18 and 28 (site not given)); test: FACS, biotin-labelled IGSF8 on CT26 cells expressing KIR3DL1/2 constructs, MFI normalized to Thy1.1
T5 construct: also called IGSF8-Fc fusion protein; IGSF8-hFc-biotin; not shown: human Fc region
T5 sequence: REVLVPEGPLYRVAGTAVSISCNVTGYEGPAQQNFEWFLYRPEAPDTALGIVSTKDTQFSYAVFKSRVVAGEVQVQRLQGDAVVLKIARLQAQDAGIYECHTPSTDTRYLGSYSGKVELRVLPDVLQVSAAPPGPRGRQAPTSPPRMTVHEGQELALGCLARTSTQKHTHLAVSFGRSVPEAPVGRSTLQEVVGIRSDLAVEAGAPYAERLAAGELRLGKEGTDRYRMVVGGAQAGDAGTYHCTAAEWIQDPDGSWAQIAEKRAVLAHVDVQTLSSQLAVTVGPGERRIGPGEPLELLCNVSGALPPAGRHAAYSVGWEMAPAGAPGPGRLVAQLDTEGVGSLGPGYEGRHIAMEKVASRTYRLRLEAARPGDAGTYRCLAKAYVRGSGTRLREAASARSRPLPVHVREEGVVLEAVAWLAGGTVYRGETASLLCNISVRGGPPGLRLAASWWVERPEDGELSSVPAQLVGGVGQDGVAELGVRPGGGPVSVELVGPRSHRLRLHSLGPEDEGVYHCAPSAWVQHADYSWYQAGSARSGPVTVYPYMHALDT

[6] = biological target: T5, recombinant human IGSF8 extracellular …; test: FACS, biotin-labelled IGSF8-hFc on CT26 cells expressing the KIR, MFI normalized to Thy1.1
Method: For this experiment, different human KIR receptors (KIR2DL1, KIR2DL2, KIR2DL3, KIR2DL4, KIR2DL5A, KIR2DL5B, KIR3DL1, KIR3DL2, KIR3DL3) were first cloned into a proprietary lentiviral vector containing a thy1.1 tag (FIG. 17A). Then mouse CT26 cells, were transducted by these lentiviral constructs, and IGSF8 binding was tested with biotin-labelled recombinant IGSF8 hFc fusion protein. The mean fluorescence intensity (MFI) of IGSF8 binding to different CT26 cells were normalized by the expression of different KIRs on CT26 cells using an anti-thy1.1 mAb (Biolegend) via flow cytometry.
KLRC1 also contains a ITIM motif in its intracellular domain, and was known to be a inhibitory receptor of NK or CD8⁺ T cells as part of a heterodimer with KLRD1 on the cell surface. […] Specifically, 100,000 CT26 cells overexpressing the antigens (KIRs or KLRs) were washed with PBS buffer containing 2% FBS, and incubated with 100 μL IGSF8 recombinant proteins or antibodies (5 μg/mL) for 30 minutes on ice. Cells were then washed twice with wash buffer, and incubated with 100 μL of 1:100 anti-human Fc-PE antibody for 15 minutes on ice. Cells were washed twice with wash buffer and analyzed on a FACS analyzer (CytoFlex, Beckman). In these experiments, the mean fluorescence intensity (MFI) of IGSF8 binding to different CT26 cells were normalized by the expression of different KLRs on CT26 cells using an anti-thy1.1 mAb via flow cytometry.

Kd [1]: 33.2 nM
EC50 [3]: 6.2 nM
Kd [4]: < 50 nM
B1: Antibody C33 (1C2) (antibody, V domains shown)
VH: QVQLVESGGGVVQPGRSLRLSCAASGFTFSTYGMHWVRQAPGKGLEWVAVIWDDGSYKYYGDSVKGRFTISRDNSKNTLYLQMNSLRAEDTAVYYCARDGSGWGYAFDIWGQGTMVTVSS
VL: DIQLTQSPSSLSASVGDRVTITCQASQDISEYLNWYQHKPGKAPNPLVFDAANLETGVPPRFSATGSGTDFSLTITSLQPEDFATYYCQQYDSFPYTFGQGTRLDIK
notes: also called mAb-1C2 (C33)
binding result [2]: no binding (tested: not shown on the sheet)

B2: KIR3DL1 D3 construct on CT26 cells (receptor, human, UniProt P43629 222-340, looked up)
chain: EKPSLSAQPGPKVQAGESVTLSCSSRSSYDMYHLSREGGAHERRLPAVRKVNRTFQADFPLGPATHGGTYRCFGSFRHSPYEWSDPSDPLLVSVTGNPSSSWPSPTEPSSKSGNPRHLH
notes: domain: D3; also called D1/D3 construct
binding result [5]: no binding (tested: not shown on the sheet)

B3: KIR3DL2 D3 construct on CT26 cells (receptor, human, UniProt P43630 222-340, looked up)
chain: EKPSLSAQPGPTVQAGENVTLSCSSWSSYDIYHLSREGEAHERRLRAVPKVNRTFQADFPLGPATHGGTYRCFGSFRALPCVWSNSSDPLLVSVTGNPSSSWPSPTEPSSKSGICRHLH
notes: as for B2
binding result [5]: no binding (tested: not shown on the sheet)

binding result [6]: no binding
B4: KIR2DL2 expressed on CT26 cells (receptor, human, UniProt P43627 22-348, looked up)
chain: HEGVHRKPSLLAHPGRLVKSEETVILQCWSDVRFEHFLLHREGKFKDTLHLIGEHHDGVSKANFSIGPMMQDLAGTYRCYGSVTHSPYQLSAPSDPLDIVITGLYEKPSLSAQPGPTVLAGESVTLSCSSRSSYDMYHLSREGEAHECRFSAGPKVNGTFQADFPLGPATHGGTYRCFGSFRDSPYEWSNSSDPLLVSVIGNPSNSWPSPTEPSSKTGNPRHLHILIGTSVVIILFILLFFLLHRWCSNKKNAAVMDQESAGNRTANSEDSDEQDPQEVTYTQLNHCVFTQRKITRPSQRPKTPPTDIIVYAELPNAESRSKVVSCP
notes: whole, on cells

Kd [1]: 3.83 nM
EC50 [3]: 4.64 nM
Kd [4]: < 50 nM
B5: Antibody C38 (2B4) (antibody, V domains shown)
VH: EVQLVESGGGLEQPGGSLRLSCAGSGFTFRDYAMTWVRQAPGKGLEWVSSISGSGGNTYYADSVKGRFTISRDNSKNTLYLQMNSLRAEDTAIYYCARGEYSSGWPSWFDPWGQGTLVTVSS
VL: EIVLTQSPSSLSASVGDRVTISCRASRTVGTFLNWYQQRPGKPPQALILGVSILEGGVSSRFSGAGSGTEFSLTISSLQPEDIGTYYCQQSHDVPRTFGQGTKVDLRR
notes: also called mAb-2B4 (C38)
binding result [2]: no binding (tested: not shown on the sheet)

binding result [6]: no binding
B6: KIR2DL5A expressed on CT26 cells (receptor, human, UniProt Q8N109 22-375, looked up)
chain: HEGGQDKPLLSAWPSAVVPRGGHVTLLCRSRLGFTIFSLYKEDGVPVPELYNKIFWKSILMGPVTPAHAGTYRCRGSHPRSPIEWSAPSNPLVIVVTGLFGKPSLSAQPGPTVRTGENVTLSCSSRSSFDMYHLSREGRAHEPRLPAVPSVNGTFQADFPLGPATHGGTYTCFGSLHDSPYEWSDPSDPLLVSVTGNSSSSSSSPTEPSSKTGIRRHLHILIGTSVAIILFIILFFFLLHCCCSNKKNAAVMDQEPAGDRTVNREDSDDQDPQEVTYAQLDHCVFTQTKITSPSQRPKTPPTDTTMYMELPNAKPRSLSPAHKHHSQALRGSSRETTALSQNRVASSHVPAAGI
notes: whole, on cells

binding result [6]: no binding
B7: KIR2DL5B expressed on CT26 cells (receptor, human, UniProt Q8NHK3 22-375, looked up)
chain: HEGGQDKPLLSAWPSAVVPRGGHVTLLCRSRLGFTIFSLYKEDGVPVPELYNKIFWKSILMGPVTPAHAGTYRCRGSHPRSPIEWSAPSNPLVIVVTGLFGKPSLSAQPGPTVRTGENVTLSCSSRSSFDMYHLSREGRAHEPRLPAVPSVDGTFQADFPLGPATHGGTYTCFSSLHDSPYEWSDPSDPLLVSVTGNSSSSSSSPTEPSSKTGIRRHLHILIGTSVAIILFIILFFFLLHCCCSNKKNAAVMDQEPAGDRTVNREDSDDQDPQEVTYAQLDHCVFTQTKITSPSQRPKTPPTDTTMYMELPNAKPRSLSPAHKHHSQALRGSSRETTALSQNRVASSHVPAAGI
notes: whole, on cells

B8: KIR3DL2 D1 construct on CT26 cells (receptor, human, UniProt P43630 22-118, looked up)
chain: LMGGQDKPFLSARPSTVVPRGGHVALQCHYRRGFNNFMLYKEDRSHVPIFHGRIFQESFIMGPVTPAHAGTYRCRGSRPHSLTGWSAPSNPLVIMVT
notes: domain: D1; also called D1/D3 construct
binding result [5]: no binding (tested: not shown on the sheet)

B9: KIR3DL1 D1 construct on CT26 cells (receptor, human, UniProt P43629 22-118, looked up)
chain: HMGGQDKPFLSAWPSAVVPRGGHVTLRCHYRHRFNNFMLYKEDRIHIPIFHGRIFQESFNMSPVTTAHAGNYTCRGSHPHSPTGWSAPSNPVVIMVT
notes: as for B8
binding result [5]: no binding (tested: not shown on the sheet)
